Reference: paper PMC8699947, “Study of ALDH from Thermus thermophilus—Expression, Purification and Characterisation of the Non-Substrate Specific, Thermophilic Enzyme Displaying Both Dehydrogenase and Esterase Activity” (Cells, 2021)

Assays:
[1] = target: ALDHTt, aldehyde dehydrogenase from Thermus thermophilus (Thermus thermophilus); test: SEC; HiLoad 16/60 Superdex 200 pg, 50 mM Tris-HCl pH 7.5, 5 mM β-mercaptoethanol, 150 mM NaCl, flow rate 1 mL/min; last step of the purification; no calibration told
[2] = substrate: CCCCCC=O; test: purified protein; details: 2 mM NAD+, 10 mM potassium phosphate pH 8, 50 °C
[3] = substrate: NC(=O)c1ccc[n+]([C@@H]2O[C@H](COP(=O)(O)OP(=O)(O)OC[C@H]3O[C@@H](n4cnc5c(N)ncnc54)[C@H](O)[C@@H]3O)[C@@H](O)[C@H]2O)c1; test: purified protein; assay type: biochemical, Thermus thermophilus; details: 2 mM hexanal, 10 mM potassium phosphate pH 8, 50 °C, varied: cofactor
[4] = substrate: O=Cc1ccc(C=O)cc1; test: purified protein; assay type: biochemical, Thermus thermophilus; details: 2 mM NAD+, 10 mM potassium phosphate pH 8, 50 °C
[5] = substrate: O=Cc1ccccc1; test: purified protein; assay type: biochemical, Thermus thermophilus; details: 2 mM NAD+, 10 mM potassium phosphate pH 8, 50 °C

stoichiometry N [1]	Molecule	Km [2] [µM]	Vmax [2] [µmol/min]	kcat [2] [s⁻¹]	Km [3] [µM]	Km [4] [µM]	Vmax [4] [µmol/min]	kcat [4] [s⁻¹]	Km [5] [µM]	Vmax [5] [µmol/min]	kcat [5] [s⁻¹]
4	ALDHTt, aldehyde dehydrogenase from Thermus thermophilus (enzyme)	–	–	–	–	–	–	–	–	–	–
–	ALDHTt (Thermus thermophilus HB27) (protein, full-length, his-tagged (pET-22b(+)-ALDHTt), E. coli BL21(DE3); homotetramer with C-terminal tail) MRKAAGKYGNTLEFGHLVGGEEVLEGPLLERRNPSDREDVVARFPEADKDLVRKAALKAREAFAEWSRTPAPIRGQVLFNLVKILEREKPTLTRLMVREVGKTPKEAAGDVQEAIDTALFFASEGRRLYGQTVPSEMRDKELFTFRRPLGVVGIITAGNFPIAVPSWKLIPAVLTGNTVVWKPSEDAPTLSFVFAKLFEEAGLPPGVLNVVFGGGKGSTGQWMVELMDEGLFQKFAFTGSTQVGRWIGEVAGRNLIRPTLELGGKNPLVVMRDADLDLAVEGAWWSAFATGGQRCTSAGNILVDAPIYEEFKRRFLERVEATLVGNPLLHPEVTYGPFINERFFARWQEHYRVGEAEGARLLFGRGRITRENPYPRFLGDPEAGLYGWPTVWEVRPGTRLFTEEVFGPTINLVKVDGIEEAIAVANSTPYGLSSAIYTNHRHWAYLFKVGIRAGMTSINNATVGAEAHLPFGGVKASGNGGRESGIWVLEEYTYWHAVNEEYSGRLQLAQMDTGYVSPKAPTPWGEVLGL	990 ± 240	0.027	5.71	9.2	380 ± 110	0.047	12.1 ± 2.5	1520 ± 510	0.0057	1.46 ± 0.29
